Measurements published in article PMC5095618 (Chemico-biological interactions, 2015).

Columns and labels:
[1] = biological target: T1, Human butyrylcholinesterase (Homo sapiens, UniProt P06276); test: ELISA
[2] = biological target: T1, Human butyrylcholinesterase; test: SPR
[3] = biological target: human albumin (Homo sapiens, UniProt P02768); test: affinity purification with mass spectrometry
[4] = biological target: T1, Human butyrylcholinesterase; test: BLI

T1 sequence (P06276 29-602): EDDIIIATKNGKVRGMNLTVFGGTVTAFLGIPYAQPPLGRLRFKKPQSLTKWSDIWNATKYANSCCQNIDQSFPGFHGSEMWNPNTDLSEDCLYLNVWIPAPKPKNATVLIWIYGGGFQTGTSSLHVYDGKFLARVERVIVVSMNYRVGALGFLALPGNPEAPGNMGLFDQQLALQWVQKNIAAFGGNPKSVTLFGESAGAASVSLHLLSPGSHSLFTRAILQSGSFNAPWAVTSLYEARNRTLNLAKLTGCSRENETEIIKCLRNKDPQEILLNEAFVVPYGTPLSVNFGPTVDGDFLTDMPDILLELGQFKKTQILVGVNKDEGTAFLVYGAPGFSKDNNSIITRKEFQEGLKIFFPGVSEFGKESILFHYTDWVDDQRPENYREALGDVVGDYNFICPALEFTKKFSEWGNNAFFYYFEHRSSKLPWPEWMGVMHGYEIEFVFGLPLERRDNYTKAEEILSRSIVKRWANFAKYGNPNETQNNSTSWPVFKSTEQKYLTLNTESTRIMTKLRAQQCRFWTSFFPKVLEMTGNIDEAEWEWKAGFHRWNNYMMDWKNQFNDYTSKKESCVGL
Chain of human albumin (P02768 25-609): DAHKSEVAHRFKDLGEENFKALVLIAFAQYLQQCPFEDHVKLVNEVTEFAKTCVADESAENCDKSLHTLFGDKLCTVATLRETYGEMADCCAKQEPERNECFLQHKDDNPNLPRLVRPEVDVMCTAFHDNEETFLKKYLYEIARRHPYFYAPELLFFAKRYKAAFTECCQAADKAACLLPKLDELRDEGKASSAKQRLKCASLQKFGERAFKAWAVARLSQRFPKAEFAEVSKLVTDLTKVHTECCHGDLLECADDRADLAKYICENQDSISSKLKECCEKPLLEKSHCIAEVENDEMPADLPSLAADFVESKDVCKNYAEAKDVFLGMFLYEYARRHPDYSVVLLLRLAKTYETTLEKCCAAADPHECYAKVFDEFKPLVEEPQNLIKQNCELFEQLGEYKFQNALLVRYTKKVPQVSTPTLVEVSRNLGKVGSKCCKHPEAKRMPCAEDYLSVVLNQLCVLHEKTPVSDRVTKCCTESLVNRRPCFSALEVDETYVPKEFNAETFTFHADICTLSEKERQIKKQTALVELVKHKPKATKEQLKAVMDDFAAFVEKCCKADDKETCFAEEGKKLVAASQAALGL

B1: mouse anti-HuBChE monoclonal antibody 11D8 (antibody, V domains shown)
VH: QVQLQQSGAELARPGASVKLSCKASGYTFTSQWLQWVKQRPGQGLEWIGAIYPGDGDTRYTQKFKGKATLTADKSSSTAYMQLTNLAPEDSAVYYCARSSMDYWGQGTSVTVSS
VL: DILLTQSPAILSVSPGERVRLSCRASQSCGTSIYWYQQRTNGSPRLLIMYASEPFSGIPSRFSGSGSGTDFTLSINSVESEDIADYYCQQSNSWPWTFGGGTRLEIK
Kd [1]: 0.26 nM
Kd [2]: 0.9 nM
binding result [3]: binds

B2: mouse anti-HuBChE monoclonal antibody B2 12-1 (antibody, V domains shown)
VH: EVQLQQSGPELVKPGASVKISCKASGYTFTDYSMHWVKLSHGKSLEWIGYIYPYNDDTDYNQKFKTKATLTVDSSSSITYLELRSLTSEDSAVYYCARSDGYSYYFDYWGQGTTLTVSS
VL: DIVMTQSPATLSVTPGDRVSLSCRASQSISDYLHWYQQKSHESPRLLIKYASQSISGIPSRFSGGGSGSDFTLSINSVEPEDVGVYYCQNGHRFPLTFGAGTKLELK
kon [4]: 800000 to 1.2e+06 M⁻¹ s⁻¹
Kd [1]: 1.41 nM
Kd [2]: 0.14 nM
